Laboratory results: patent US20120315277A1, “Compositions and Methods for the Therapy and Diagnosis of Influenza” (priority 2011, published 2012)
Substitutions are numbered along the chain they refer to. Where “and” joins values, the source holds several entries; their conditions need not be identical. Identical values can stand only once. Like-named read-outs stand apart in the source and are kept apart here.

T1: M2 protein of influenza A/Fort Worth/1/50 (H1N1), expressed on 293 cells (influenza A virus A/Fort Worth/1/50 …)
T1 chain: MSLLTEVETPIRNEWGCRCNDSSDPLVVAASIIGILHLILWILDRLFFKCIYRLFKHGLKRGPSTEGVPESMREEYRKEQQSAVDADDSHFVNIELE

B1: 8I10 (antibody, V domains shown)
VH: QVQLQESGPGLVKPSETLSLTCTVSGSSISNYYWSWIRQSPGKGLEWIGFIYYGGNTKYNPSLKSRVTISQDTSKSQVSLTMSSVTAAESAVYFCARASCSGGYCILDYWGQGTLVTVS
VL: DIQMTQSPSSLSASVGDRVTITCRASQNIYKYLNWYQQRPGKAPKGLISAASGLQSGVPSRFSGSGSGTDFTLTITSLQPEDFATYYCQQSYSPPLTFGGGTRVEIK
B2: 21B15 (antibody, V domains shown)
VH: B1 VH
VL: B1 VL with M4V, E105D
B3: 23K12 (antibody, V domains shown)
VH: EVQLVESGGGLVQPGGSLRISCAASGFTVSSNYMSWVRQAPGKGLEWVSVIYSGGSTYYADSVKGRFSFSRDNSKNTVFLQMNSLRAEDTAVYYCARCLSRMRGYGLDVWGQGTTVTVS
VL: DIQMTQSPSSLSASVGDRVTITCRTSQSISSYLNWYQQKPGKAPKLLIYAASSLQSGVPSRFSGSGSGTDFTLTISGLQPEDFATYYCQQSYSMPAFGQGTKLEIK

Key:
H5N1 (VN1203/04) [1] = system: H5N1 (VN1203/04); set-up: key to Liver: viral antigens: +++: many; ++: moderate; +: few; ±: rare; −: negative; key to Liver: pathological changes / Lung: pathological changes / Brain: pathological changes: +++: severe; ++: moderate; +: mild; ±: scant; −: not observed; conditions: mouse, in vivo
H5N1 (VN1203/04) [2] = system: H5N1 (VN1203/04); set-up: key: +++: many; ++: moderate; +: few; ±: rare; −: negative; conditions: mouse, in vivo
H5N1 (VN1203/04) [3] = system: H5N1 (VN1203/04); set-up: key: +++: severe; ++: moderate; +: mild; ±: scant; −: not observed; conditions: mouse, in vivo
[4] = system: H5N1 (A/Vietnam/1203/04, VN1203); set-up: species or system mouse (balb/c); conditions: mouse, in vivo
[5] = system: H5N1 (A/Vietnam/1203/04, VN1203); set-up: species or system mouse (balb/c); conditions: mouse, in vivo; remark: listed apart in the source
[6] = system: H1N1 (A/Solomon Islands/06); experiment: H1N1 challenge IV at 10LD50 (Example 16); assay type: in vivo, mouse (balb/c); conditions: 10MLD50; antibody on days 3 and 5
H1N1 (A/NWS/33) = experiment: H1N1 challenge V at 2 or 4 LD50 (Example 17); assay type: in vivo, mouse (balb/c); conditions: antibody 20 mg/kg, oseltamivir 10 mg/kg bid
H1N1 (A/PR/8/34) = experiment: H1N1 challenge VI at 5LD50 (Example 18); assay type: in vivo, mouse (balb/c); conditions: 5MLD50; antibody 20 mg/kg days 1, 3, 5; oseltamivir 10 mg/kg four hours post-infection
H5N1 (VN1203/04) [7] = conditions: mouse, in vivo
[8] = system: H5N1 (A/Vietnam/1203/04, VN1203); set-up: species or system mouse (balb/c); conditions: mouse, in vivo; remark: listed apart in the source
[9] = system: H5N1 (A/Vietnam/1203/04, VN1203); set-up: species or system mouse (balb/c); conditions: mouse, in vivo; remark: listed apart in the source
M2 peptide SEQ ID NO 273 = experiment: peptide ELISA, 5 µg/mL
[10] = molecular target: truncated M2 peptide SEQ ID NO 271; experiment: peptide ELISA, 5 µg/mL
[11] = molecular target: truncated M2 peptide SEQ ID NO 298; experiment: peptide ELISA, 5 µg/mL
[12] = molecular target: truncated M2 peptide SEQ ID NO 299; experiment: peptide ELISA, 5 µg/mL
[13] = molecular target: truncated M2 peptide SEQ ID NO 300; experiment: peptide ELISA, 5 µg/mL
[14] = molecular target: truncated M2 peptide SEQ ID NO 301; experiment: peptide ELISA, 5 µg/mL
[15] = molecular target: truncated M2 peptide SEQ ID NO 302; experiment: peptide ELISA, 5 µg/mL
[16] = molecular target: truncated M2 peptide SEQ ID NO 303; experiment: peptide ELISA, 5 µg/mL
[17] = molecular target: truncated M2 peptide SEQ ID NO 304; experiment: peptide ELISA, 5 µg/mL
[18] = molecular target: truncated M2 peptide SEQ ID NO 305; experiment: peptide ELISA, 5 µg/mL
[19] = molecular target: truncated M2 peptide SEQ ID NO 306; experiment: peptide ELISA, 5 µg/mL
[20] = molecular target: truncated M2 peptide SEQ ID NO 307; experiment: peptide ELISA, 5 µg/mL
[21] = molecular target: truncated M2 peptide SEQ ID NO 308; experiment: peptide ELISA, 5 µg/mL
[22] = molecular target: truncated M2 peptide SEQ ID NO 309; experiment: peptide ELISA, 5 µg/mL
[23] = molecular target: truncated M2 peptide SEQ ID NO 310; experiment: peptide ELISA, 5 µg/mL
[24] = molecular target: truncated M2 peptide SEQ ID NO 311; experiment: peptide ELISA, 5 µg/mL
[25] = molecular target: truncated M2 peptide SEQ ID NO 312; experiment: peptide ELISA, 5 µg/mL
[26] = molecular target: truncated M2 peptide SEQ ID NO 313; experiment: peptide ELISA, 5 µg/mL
[27] = molecular target: truncated M2 peptide SEQ ID NO 314; experiment: peptide ELISA, 5 µg/mL
[28] = molecular target: truncated M2 peptide SEQ ID NO 315; experiment: peptide ELISA, 5 µg/mL
[29] = molecular target: truncated M2 peptide SEQ ID NO 316; experiment: peptide ELISA, 5 µg/mL
[30] = molecular target: T2, M2 protein on influenza A/Puerto Rico/8/34 (H1N1) virus particles (influenza A virus A/Puerto Rico/8/34 …, UniProt P06821 1-97); experiment: ELISA on purified A/Puerto Rico/8/34 virus
[31] = molecular target: M2 protein of influenza A/Puerto Rico/8/34 (H1N1) on cells (influenza A virus A/Puerto Rico/8/34 …, UniProt P06821 1-97); experiment: FACS, MDCK cells infected with A/Puerto Rico/8/34
[32] = molecular target: T1, M2 protein of influenza A/Fort …; experiment: cell staining images, 293-HEK cells stably expressing M2
[33] = molecular target: T2, M2 protein on influenza A/Puerto …; experiment: ELISA on A/PR/8 virus, normalised to 8i10 at 10 µg/ml [D00002 FIG. 2B]

Molecule | ELISA A450 [10] | ELISA A450 [13] | ELISA A450 [14] | ELISA A450 [15] | ELISA A450 [16] | ELISA A450 [17] | ELISA A450 [18] | ELISA A450 [19] | ELISA A450 [23] | ELISA A450 [24] | ELISA A450 [25] | ELISA A450 [26] | ELISA A450 [27] | ELISA A450 [28] | ELISA A450 [29] | EC50 [30] | EC50 (read off the curve) [31] | binding result [32] | EC50 (read off the curve) [33] | also measured
CCOC(=O)C1=C[C@@H](OC(CC)CC)[C@H](NC(C)=O)[C@@H](N)C1 [Osel] |  |  |  |  |  |  |  |  |  |  |  |  |  |  |  |  |  |  |  | Brain: pathological changes (H5N1 (VN1203/04) [1]): −/− and ++/++ and +/++; Liver: pathological changes (H5N1 (VN1203/04) [1]): −/−; Liver: viral antigens (H5N1 (VN1203/04) [1]): −/−; Lung: pathological changes (H5N1 (VN1203/04) [1]): +/+ and +/++ and ++/++; Brain: viral antigens (H5N1 (VN1203/04) [2]): −/−; Lung: viral antigens (H5N1 (VN1203/04) [2]): +/+; Brain: viral antigens (H5N1 (VN1203/04) [3]): ++/++ and +/++; Lung: viral antigens (H5N1 (VN1203/04) [3]): +/++ and ++/++
CCOC(=O)C1=C[C@@H](OC(CC)CC)[C@H](NC(C)=O)[C@@H](N)C1 [oseltamivir] |  |  |  |  |  |  |  |  |  |  |  |  |  |  |  |  |  |  |  | survival rate at day 14 [4]: 20%; survival rate at day 14 [5]: 20%; mice surviving until day 21 [6]: about 10%; survival rate at day 21 (H1N1 (A/NWS/33); 2MLD50): 90%; survival rate at day 21 (H1N1 (A/NWS/33); 4MLD50): 100%; survival rate at day 21 (H1N1 (A/PR/8/34)): 80%; survival rate at day 14 (H5N1 (VN1203/04) [7]): 90% and 50%; protection from death (in words) [8]: completely protected mice; protection from weight loss (in words) [8]: completely protected mice; survival rate at day 15 [8]: 60%; weight remaining (in words) [8]: retained more weight; survival (in words) [9]: extinction of the population prior to the end of the therapy
B1 | 0.12 | 0.09 | 0.11 | 0.13 | 0.12 | 0.14 | 0.14 | 0.14 | 0.11 | 0.11 | 0.1 | 0.13 | 0.1 | 0.1 | 0.1 | ~0.1 µg/mL | ~0.1 µg/mL | binds | ~0.04 µg/mL | ELISA A450 (M2 peptide SEQ ID NO 273): 0.11; ELISA A450 [11]: 0.09; ELISA A450 [12]: 0.09; ELISA A450 [20]: 0.26; ELISA A450 [21]: 0.29; ELISA A450 [22]: 0.12
B2 |  |  |  |  |  |  |  |  |  |  |  |  |  |  |  |  |  | binds |  | 
B3 | 0.3 | 0.2 | 0.34 | 0.35 | 0.34 | 0.36 | 0.34 | 0.39 | 0.24 | 0.25 | 0.24 | 0.3 | 0.24 | 0.2 | 0.2 | ~0.1 µg/mL | ~0.2 µg/mL | binds | ~0.06 µg/mL | 
